Assay [1] concerns the target GP075m, variant of the putative baseplate wedge protein GP075 with the substitution T239A (phage K8-T239A), His-tagged (Pseudomonas phage K8-T239A (derivative of phage K8)). Description: SEC-MALS; 100 ul of protein solution (0.15-4.05 mg/ml) on a WTC-015S5 column; 100 mM NaCl, 50 mM Tris-HCl, 1 mM EDTA, 0.02% NaN3, pH 7.4; 0.4 ml/min; BSA as control; self-polymerization degree. For orientation: Size exclusion chromatography separates by hydrodynamic size, large species first.

The target in assay [2] is putative baseplate wedge protein GP075 of Pseudomonas phage K8, His-tagged (Pseudomonas phage K8). Described as above.

Take “GP075m, variant of the putative baseplate wedge protein GP075 with the substitution T239A (phage K8-T239A), His-tagged (natural protein)”: in assay [1], the molar mass was determined as 185. Regarding “putative baseplate wedge protein GP075 of Pseudomonas phage K8, His-tagged (natural protein)”, in assay [2], the molar mass was 81.2.

The values are drawn from article PMC9887876.
